# Experimental data reported in paper PMC10392684, “Amyloid-like Hfq interaction with single-stranded DNA: involvement in recombination and replication in Escherichia coli”.
# T1: Hfq-CTR peptide (Escherichia coli, UniProt P0A6X3 64-102)
# T1 chain: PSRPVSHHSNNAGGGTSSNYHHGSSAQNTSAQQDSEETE
# B1: dA59 (ssDNA)
# DNA: AAAAAAAAAAAAAAAAAAAAAAAAAAAAAAAAAAAAAAAAAAAAAAAAAAAAAAAAAAA
# B2: dA59 (spectroscopy) (ssDNA)
# DNA: B1 DNA
# Tests used:
# Hfq = Hfq (Escherichia coli, UniProt P0A6X3 1-102); assay: fluorescence anisotropy; Anisotropy: buffer not given in material (as Geinguenaud 2011); pH ~5 stated for DNA complex formation; microscopy: Hfq stock in 50 mM Tris-HCl pH 7.5, 50 mM NH4Cl, 10% glycerol, 1 mM EDTA, exchanged to TE (10 mM Tris-HCl pH 8, 1 mM EDTA); TEM: 10 mM Tris-HCl, 1 mM EDTA, room temperature, 10 min; details: protein: recombinant; chain copies: 6; label: 5'-fluorescein
# Sequence of Hfq (P0A6X3 whole entry): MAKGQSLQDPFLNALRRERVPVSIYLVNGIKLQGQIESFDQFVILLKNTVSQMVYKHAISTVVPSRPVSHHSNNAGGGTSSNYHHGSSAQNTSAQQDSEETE
# Hfq-CTR peptide = biological target: T1, Hfq-CTR peptide; assay: FTIR and SRCD; pH ~5; Anisotropy: buffer not given in material (as Geinguenaud 2011); pH ~5 stated for DNA complex formation; microscopy: Hfq stock in 50 mM Tris-HCl pH 7.5, 50 mM NH4Cl, 10% glycerol, 1 mM EDTA, exchanged to TE (10 mM Tris-HCl pH 8, 1 mM EDTA); TEM: 10 mM Tris-HCl, 1 mM EDTA, room temperature, 10 min
Binder,Kd (Hfq) [nM],binding result (Hfq-CTR peptide)
AAAAAAAAAAAAAAAAAAAA (ssDNA) [dA20],183 ± 8,
AAAAAAA (ssDNA) [dA7],3500 ± 200,
B1,166 ± 16,
B2,,binds
